The numbers were not newly measured in patent publication US20090169520A1, “Compounds, Pharmaceutical Compositions and Therapeutic Methods of Preventing and Treating Diseases and Disorders Associated With Amyloid Fibril Formation” (YISSUM RESEARCH DEVELOPMENT COMPANY OF THE HEBREW …, priority 2005, published 2009), which cites them from elsewhere.

For this series the following is noted: single C-terminal substitution (A539T); Bartels et al., 1992; cited from earlier work.

B1: BChE K variant: BChE variant with a single C-terminal substitution (A539T) (protein, UniProt P06276 29-602, looked up, variant A539T)
Cholinesterase: EDDIIIATKNGKVRGMNLTVFGGTVTAFLGIPYAQPPLGRLRFKKPQSLTKWSDIWNATKYANSCCQNIDQSFPGFHGSEMWNPNTDLSEDCLYLNVWIPAPKPKNATVLIWIYGGGFQTGTSSLHVYDGKFLARVERVIVVSMNYRVGALGFLALPGNPEAPGNMGLFDQQLALQWVQKNIAAFGGNPKSVTLFGESAGAASVSLHLLSPGSHSLFTRAILQSGSFNAPWAVTSLYEARNRTLNLAKLTGCSRENETEIIKCLRNKDPQEILLNEAFVVPYGTPLSVNFGPTVDGDFLTDMPDILLELGQFKKTQILVGVNKDEGTAFLVYGAPGFSKDNNSIITRKEFQEGLKIFFPGVSEFGKESILFHYTDWVDDQRPENYREALGDVVGDYNFICPALEFTKKFSEWGNNAFFYYFEHRSSKLPWPEWMGVMHGYEIEFVFGLPLERRDNYTKAEEILSRSIVKRWANFAKYGNPNETQNNSTSWPVFKSTEQKYLTLNTESTRIMTKLRAQQCRFWTSFFPKVLEMTGNIDETEWEWKAGFHRWNNYMMDWKNQFNDYTSKKESCVGL
As to B1, the “reduction in hydrolytic activity” value is on record as 30%.
